Results from article PMC12204343, “Regulatory Role of Serine59 in the Oligomeric Dynamics and Chaperone Function of αB-Crystallin” (Research Square, 2025).

Columns and labels:
αB-crystallin = αB-crystallin (UniProt P02511); assay: SEC-MALS of homo-oligomer mass; TEM; details: reference: wild type; sites S59
[1] = biological target: the molecule itself; assay: negative-stain transmission electron microscopy; 0.05 mg/mL on glow-discharged carbon grids, 2% uranyl acetate; oligomers of the chaperone protein alone
Luciferase = Luciferase (UniProt P08659 1-550 = luciferase); assay: cell-based or functional assay
Sequence of Luciferase (P08659 whole entry): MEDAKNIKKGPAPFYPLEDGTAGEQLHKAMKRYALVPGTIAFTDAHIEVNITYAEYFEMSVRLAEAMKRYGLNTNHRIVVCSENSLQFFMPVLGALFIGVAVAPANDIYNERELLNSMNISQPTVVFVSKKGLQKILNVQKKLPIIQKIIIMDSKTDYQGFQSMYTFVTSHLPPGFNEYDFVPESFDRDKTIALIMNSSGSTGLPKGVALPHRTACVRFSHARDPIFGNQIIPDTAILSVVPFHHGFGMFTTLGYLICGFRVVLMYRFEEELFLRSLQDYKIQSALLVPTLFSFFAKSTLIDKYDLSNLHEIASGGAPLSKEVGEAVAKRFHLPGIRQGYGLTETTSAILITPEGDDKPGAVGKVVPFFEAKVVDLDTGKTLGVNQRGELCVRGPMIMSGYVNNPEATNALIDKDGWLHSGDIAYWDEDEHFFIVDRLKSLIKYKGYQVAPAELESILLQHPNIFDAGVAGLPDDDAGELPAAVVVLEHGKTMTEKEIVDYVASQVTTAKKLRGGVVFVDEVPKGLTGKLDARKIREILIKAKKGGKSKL

Alcohol dehydrogenase = biological target: T1, Alcohol dehydrogenase (UniProt P00330 1-348); assay: cell-based or functional assay
T1 sequence (looked up): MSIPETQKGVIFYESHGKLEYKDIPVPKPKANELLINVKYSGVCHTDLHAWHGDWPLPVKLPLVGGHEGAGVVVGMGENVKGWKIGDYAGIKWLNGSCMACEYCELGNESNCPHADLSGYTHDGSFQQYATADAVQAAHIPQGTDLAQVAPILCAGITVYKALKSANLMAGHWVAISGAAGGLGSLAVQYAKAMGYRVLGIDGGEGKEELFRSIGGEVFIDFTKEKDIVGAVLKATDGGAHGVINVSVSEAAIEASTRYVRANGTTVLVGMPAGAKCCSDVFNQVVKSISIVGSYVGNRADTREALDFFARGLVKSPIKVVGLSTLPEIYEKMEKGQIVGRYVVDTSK

Lysozyme = Lysozyme (UniProt P00698 19-147); assay: cell-based or functional assay
Sequence of Lysozyme (P00698 19-147): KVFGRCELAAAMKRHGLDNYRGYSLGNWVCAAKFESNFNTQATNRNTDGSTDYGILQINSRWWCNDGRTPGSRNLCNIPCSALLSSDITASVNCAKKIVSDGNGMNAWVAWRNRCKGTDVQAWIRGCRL

[2] = biological target: the molecule itself; assay: SEC-MALS; HPLC coupled with MALS; proteins (0.15 mg in 0.05 mL) incubated at 37°C for 1 hour before analysis; self-association into oligomers

Row | Molecule | other: average oligomeric mass (αB-crystallin) | binding result [1] | EC50 of suppression of luciferase (0.5 μM) aggregation, light scattering at 360 nm, 90 min, PBS, 37°C (Luciferase) [nM] | chaperone efficiency against ADH (2.5 μM) aggregation relative to αB-S59D, light scattering at 360 nm, 90 min, PBS + 50 mM EDTA, 37°C (Alcohol dehydrogenase) [fold] | protection against DTT-induced lysozyme (10 μM) aggregation, 2.5 μM chaperone, PBS, 2 mM DTT, 37°C, 6 hours (Lysozyme) [%] | EC50 of suppression of ADH (2.5 μM) aggregation, light scattering at 360 nm, 90 min, PBS + 50 mM EDTA, 37°C (Alcohol dehydrogenase) [nM] | binding result [2]
1 | αB-crystallin (from UniProt P02511) ΔS59 | same; reference 579 | – | – | – | – | – | –
2 | αB-crystallin (from UniProt P02511) S59D | weaker; reference 579 | – | – | – | – | – | –
3 | αB-crystallin with residues 54–61 deleted (natural protein, human, UniProt P02511 1-175, looked up, αB-crystallin, human, with residues 54–61 deleted; also called αB-Δ54–61; αBΔ54–61) MDIAIHHPWIRRPFFPFHSPSRLFDQFFGEHLLESDLFPTSTSLSPFYLRPPSDTGLSEMRLEKDRFSVNLDVKHFSPEELKVKVLGDVIEVHGKHEERQDEHGFISREFHRKYRIPADVDPLTITSSLSSDGVLTVNGPRKQVSGPERTIPITREEKPAVTAAPKK | – | binds | 1200 | 1.6 | > 95 | – | –
4 | wild-type αB-crystallin (natural protein, human, UniProt P02511 1-175, looked up, αB-crystallin, human, wild type; forms large polydisperse oligomers; no tag is mentioned; also called αB-WT; WT-αB; source: E. coli BL21(DE3)pLysS, purified (Q-Sepharose, Superdex and Superose 6 size exclusion, ammonium sulphate)) MDIAIHHPWIRRPFFPFHSPSRLFDQFFGEHLLESDLFPTSTSLSPFYLRPPSFLRAPSWFDTGLSEMRLEKDRFSVNLDVKHFSPEELKVKVLGDVIEVHGKHEERQDEHGFISREFHRKYRIPADVDPLTITSSLSSDGVLTVNGPRKQVSGPERTIPITREEKPAVTAAPKK | – | – | 4300 | – | ~52 | 1000 | binds
5 | αB-crystallin S59A (natural protein, human, UniProt P02511 1-175, looked up, αB-crystallin, human, with the substitution S59A; Made by site-directed mutagenesis; called the control mutant; also called αB-S59A; source: E. coli BL21(DE3)pLysS, purified (Q-Sepharose, Superdex and Superose 6 size exclusion, ammonium sulphate)) MDIAIHHPWIRRPFFPFHSPSRLFDQFFGEHLLESDLFPTSTSLSPFYLRPPSFLRAPAWFDTGLSEMRLEKDRFSVNLDVKHFSPEELKVKVLGDVIEVHGKHEERQDEHGFISREFHRKYRIPADVDPLTITSSLSSDGVLTVNGPRKQVSGPERTIPITREEKPAVTAAPKK | stronger; reference 579 | – | 13700 | – | 84 | 1400 | binds
6 | αB-crystallin S59D (phosphomimetic mutant) (natural protein, human, UniProt P02511 1-175, looked up, αB-crystallin, human, with the phosphomimetic substitution S59D; Made by site-directed mutagenesis; also called αB-S59D; αBS59D; source: E. coli BL21(DE3)pLysS, purified (Q-Sepharose, Superdex and Superose 6 size exclusion, ammonium sulphate)) MDIAIHHPWIRRPFFPFHSPSRLFDQFFGEHLLESDLFPTSTSLSPFYLRPPSFLRAPDWFDTGLSEMRLEKDRFSVNLDVKHFSPEELKVKVLGDVIEVHGKHEERQDEHGFISREFHRKYRIPADVDPLTITSSLSSDGVLTVNGPRKQVSGPERTIPITREEKPAVTAAPKK | – | – | 1100 | – | – | 500 | binds
7 | αB-crystallin ΔS59 (deletion of Serine 59) (natural protein, human, UniProt P02511 1-175, looked up, αB-crystallin, human, with Serine 59 deleted; Made by site-directed mutagenesis; also called αB-ΔS59; source: E. coli BL21(DE3)pLysS, purified (Q-Sepharose, Superdex and Superose 6 size exclusion, ammonium sulphate)) MDIAIHHPWIRRPFFPFHSPSRLFDQFFGEHLLESDLFPTSTSLSPFYLRPPSFLRAPWFDTGLSEMRLEKDRFSVNLDVKHFSPEELKVKVLGDVIEVHGKHEERQDEHGFISREFHRKYRIPADVDPLTITSSLSSDGVLTVNGPRKQVSGPERTIPITREEKPAVTAAPKK | – | – | 8300 | – | 60 | 1200 | binds
